Experimental data from the supplement of paper PMC9112550, “Optimization of the antimicrobial peptide Bac7 by deep mutational scanning” (BMC Biology, 2022).

tested on: Escherichia coli TOP10; test: shrunken log2 fold change of peptide-encoding DNA abundance (4.5 h post-induction vs induction); higher = less antimicrobial activity (less host growth inhibition); conditions: time post-induction: 4.5 h; library: site-saturation at positions 5, 18, 19, 20
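Also: peptides expressed intracellularly from a pBAD plasmid library in pooled LB shake-flask culture, induced with 0.3% L-arabinose, DNA abundance read by NGS, three biological replicates, DESeq2 with apeglm shrinkage.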

Sequence	shrunken log2 fold change
RRIRMRPPRLPRPRPRPPQVPRP	0.995
RRIRMRPPRLPRPRPRPPRFPRP	1.23
RRIRMRPPRLPRPRPRPPRGPRP	1.17
RRIRMRPPRLPRPRPRPPRPPRP	1.75
RRIRMRPPRLPRPRPRPPTVPRP	0.593
RRIRMRPPRLPRPRPRPPTYPRP	0.306
RRIRMRPPRLPRPRPRPPVEPRP	0.664
RRIRMRPPRLPRPRPRPPVYPRP	0.167
RRIRMRPPRLPRPRPRPPWEPRP	0.601
RRIRMRPPRLPRPRPRPPWQPRP	0.763
RRIRMRPPRLPRPRPRPPWSPRP	0.596
RRIRMRPPRLPRPRPRPQAHPRP	0.0821
RRIRMRPPRLPRPRPRPQCGPRP	0.096
RRIRMRPPRLPRPRPRPQCHPRP	0.0857
RRIRMRPPRLPRPRPRPQCIPRP	0.0157
RRIRMRPPRLPRPRPRPQDAPRP	0.0668
RRIRMRPPRLPRPRPRPQDDPRP	-0.00208
RRIRMRPPRLPRPRPRPQDIPRP	-0.0524
RRIRMRPPRLPRPRPRPQEKPRP	0.01
RRIRMRPPRLPRPRPRPQGVPRP	-0.0179
RRIRMRPPRLPRPRPRPQHYPRP	-0.116
RRIRMRPPRLPRPRPRPQIHPRP	0.149
RRIRMRPPRLPRPRPRPQKGPRP	-0.0123
RRIRMRPPRLPRPRPRPQMMPRP	0.443
RRIRMRPPRLPRPRPRPQPAPRP	1.55

Sequence	shrunken log2 fold change
RRIRMRPPRLPRPRPRPQPLPRP	0.224
RRIRMRPPRLPRPRPRPQPQPRP	0.717
RRIRMRPPRLPRPRPRPQQEPRP	0.137
RRIRMRPPRLPRPRPRPQREPRP	0.203
RRIRMRPPRLPRPRPRPQTGPRP	-0.0549
RRIRMRPPRLPRPRPRPQTLPRP	0.0245
RRIRMRPPRLPRPRPRPQWDPRP	0.232
RRIRMRPPRLPRPRPRPQWWPRP	0.245
RRIRMRPPRLPRPRPRPQYDPRP	-0.204
RRIRMRPPRLPRPRPRPQYHPRP	-0.299
RRIRMRPPRLPRPRPRPQYRPRP	-0.0939
RRIRMRPPRLPRPRPRPRDDPRP	0.202
RRIRMRPPRLPRPRPRPRDGPRP	2.69
RRIRMRPPRLPRPRPRPRDNPRP	0.455
RRIRMRPPRLPRPRPRPRFAPRP	0.728
RRIRMRPPRLPRPRPRPRGHPRP	1.33
RRIRMRPPRLPRPRPRPRIHPRP	0.0221
RRIRMRPPRLPRPRPRPRIVPRP	0.16
RRIRMRPPRLPRPRPRPRKKPRP	1.43
RRIRMRPPRLPRPRPRPRLTPRP	1.13
RRIRMRPPRLPRPRPRPRNMPRP	0.281
RRIRMRPPRLPRPRPRPRPFPRP	0.647
RRIRMRPPRLPRPRPRPRPWPRP	0.996
RRIRMRPPRLPRPRPRPRRDPRP	0.651
RRIRMRPPRLPRPRPRPRRGPRP	1.09

Sequence	shrunken log2 fold change
RRIRMRPPRLPRPRPRPRRLPRP	0.817
RRIRMRPPRLPRPRPRPRVDPRP	0.95
RRIRMRPPRLPRPRPRPRVHPRP	0.446
RRIRMRPPRLPRPRPRPRVNPRP	1.08
RRIRMRPPRLPRPRPRPRVVPRP	0.246
RRIRMRPPRLPRPRPRPRYLPRP	-0.0395
RRIRMRPPRLPRPRPRPRYNPRP	-0.151
RRIRMRPPRLPRPRPRPSALPRP	0.105
RRIRMRPPRLPRPRPRPSATPRP	3.21
RRIRMRPPRLPRPRPRPSAWPRP	1.75
RRIRMRPPRLPRPRPRPSCFPRP	-0.145
RRIRMRPPRLPRPRPRPSFYPRP	-0.29
RRIRMRPPRLPRPRPRPSHPPRP	-0.0222
RRIRMRPPRLPRPRPRPSIKPRP	-0.0928
RRIRMRPPRLPRPRPRPSKWPRP	-0.104
RRIRMRPPRLPRPRPRPSLAPRP	0.566
RRIRMRPPRLPRPRPRPSLWPRP	1.72
RRIRMRPPRLPRPRPRPSNEPRP	0.287
RRIRMRPPRLPRPRPRPSNMPRP	-0.0931
RRIRMRPPRLPRPRPRPSPDPRP	1.19
RRIRMRPPRLPRPRPRPSPIPRP	-0.106
RRIRMRPPRLPRPRPRPSPNPRP	0.0416
RRIRMRPPRLPRPRPRPSQDPRP	0.224
RRIRMRPPRLPRPRPRPSQNPRP	0.407
RRIRMRPPRLPRPRPRPSRNPRP	0.476
